Biological target: GLP-1 receptor (GLP-1 cyclase assay of Example 11) (UniProt P32301)
Assay: cell-based or functional assay

GLP-1 receptor (GLP-1 cyclase assay of Example 11), sequence (P32301 22-463 limits assumed): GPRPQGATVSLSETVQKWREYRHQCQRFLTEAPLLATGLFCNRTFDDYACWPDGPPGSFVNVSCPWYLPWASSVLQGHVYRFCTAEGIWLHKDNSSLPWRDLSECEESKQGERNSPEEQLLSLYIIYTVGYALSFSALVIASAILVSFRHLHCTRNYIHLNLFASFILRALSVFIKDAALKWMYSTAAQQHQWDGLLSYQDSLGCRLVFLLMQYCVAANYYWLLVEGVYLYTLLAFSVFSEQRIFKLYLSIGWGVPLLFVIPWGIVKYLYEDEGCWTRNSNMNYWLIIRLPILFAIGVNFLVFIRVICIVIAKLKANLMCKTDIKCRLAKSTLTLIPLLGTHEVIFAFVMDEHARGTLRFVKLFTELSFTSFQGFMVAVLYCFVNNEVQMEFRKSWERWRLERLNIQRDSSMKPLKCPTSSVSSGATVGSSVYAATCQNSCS

For “[^14Leu,^28Gln]Exendin-4-(1-32)-fGLP-1-(33-37)-miniPEG-(S)-2,6-diamino-1-(pyrrolidin-2-cyano-1-yl)hexan-1-amide (peptide)”, the GLP Cyclase EC50 was 0.017 nM.
